From patent publication US20030232387A1 (Takeda / Millennium, published 2003)
Several values for one entry are separate records, joined by “and”; a condition that tells them apart may be missing. Identical values can stand only once. Values belong to the binder of their own block, whether it stands above or below them.

How the values were obtained:
[1] = target: T1, α4β7 integrin expressed on transfected K562 cells (human, UniProt P13612 34-1032; P26010 20-798); experiment: flow cytometry on K562 α4β7 transfectants
T1 construct: How the α4β7 transfectants were made is not described; also called α4β7 transfectants
T1 sequence (P13612 34-1032 R878Q limits assumed, chain 1 of 2): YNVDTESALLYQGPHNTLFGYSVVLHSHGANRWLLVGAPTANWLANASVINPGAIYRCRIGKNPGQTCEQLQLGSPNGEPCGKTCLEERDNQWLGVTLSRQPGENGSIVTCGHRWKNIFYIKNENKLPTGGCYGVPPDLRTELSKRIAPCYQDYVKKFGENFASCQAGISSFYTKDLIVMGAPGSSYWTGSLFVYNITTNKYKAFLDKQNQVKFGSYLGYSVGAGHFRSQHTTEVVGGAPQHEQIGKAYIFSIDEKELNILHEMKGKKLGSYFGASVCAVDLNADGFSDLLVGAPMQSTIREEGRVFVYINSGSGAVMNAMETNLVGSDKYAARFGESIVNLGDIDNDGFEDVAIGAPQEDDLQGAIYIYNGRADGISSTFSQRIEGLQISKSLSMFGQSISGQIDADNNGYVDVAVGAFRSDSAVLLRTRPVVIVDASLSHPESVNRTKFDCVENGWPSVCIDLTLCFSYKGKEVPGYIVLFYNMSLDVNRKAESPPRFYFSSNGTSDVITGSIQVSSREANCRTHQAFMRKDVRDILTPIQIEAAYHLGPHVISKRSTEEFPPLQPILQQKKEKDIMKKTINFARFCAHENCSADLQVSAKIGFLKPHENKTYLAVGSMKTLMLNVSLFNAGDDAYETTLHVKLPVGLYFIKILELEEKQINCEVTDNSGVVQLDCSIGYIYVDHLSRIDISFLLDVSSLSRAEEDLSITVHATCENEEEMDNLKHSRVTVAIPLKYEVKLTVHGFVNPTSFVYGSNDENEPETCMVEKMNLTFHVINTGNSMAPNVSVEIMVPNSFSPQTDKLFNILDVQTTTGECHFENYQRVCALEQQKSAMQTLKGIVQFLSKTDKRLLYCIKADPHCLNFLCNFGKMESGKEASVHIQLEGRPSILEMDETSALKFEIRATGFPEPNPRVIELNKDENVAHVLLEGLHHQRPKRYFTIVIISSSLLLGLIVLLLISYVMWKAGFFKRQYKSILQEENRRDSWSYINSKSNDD
T1 sequence (P26010 20-798 limits assumed, chain 2 of 2): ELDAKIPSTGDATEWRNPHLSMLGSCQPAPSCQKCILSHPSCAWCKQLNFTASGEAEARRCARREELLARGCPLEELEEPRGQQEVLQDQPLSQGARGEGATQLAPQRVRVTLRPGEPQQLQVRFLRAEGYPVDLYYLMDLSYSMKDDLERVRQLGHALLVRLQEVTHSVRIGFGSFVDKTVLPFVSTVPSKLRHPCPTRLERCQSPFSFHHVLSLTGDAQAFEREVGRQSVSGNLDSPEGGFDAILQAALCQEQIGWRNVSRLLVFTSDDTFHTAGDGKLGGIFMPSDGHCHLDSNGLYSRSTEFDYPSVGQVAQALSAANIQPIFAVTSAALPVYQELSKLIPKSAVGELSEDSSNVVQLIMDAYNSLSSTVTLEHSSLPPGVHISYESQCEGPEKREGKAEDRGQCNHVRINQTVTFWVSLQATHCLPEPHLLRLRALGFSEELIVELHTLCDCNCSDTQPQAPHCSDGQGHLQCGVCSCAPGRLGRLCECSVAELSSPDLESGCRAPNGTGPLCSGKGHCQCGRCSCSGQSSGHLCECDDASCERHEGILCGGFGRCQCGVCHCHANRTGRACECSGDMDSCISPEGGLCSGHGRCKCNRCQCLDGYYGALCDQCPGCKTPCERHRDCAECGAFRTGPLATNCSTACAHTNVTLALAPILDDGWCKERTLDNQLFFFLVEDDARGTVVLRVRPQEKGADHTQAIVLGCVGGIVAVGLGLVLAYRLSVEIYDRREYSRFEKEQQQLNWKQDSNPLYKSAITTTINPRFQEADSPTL

[2] = target: T2, human αEβ7 integrin expressed on cells (human, UniProt P38570 19-1179; P26010 20-798); experiment: cell adhesion assay, inhibition of K562 αEβ7 cells binding to immobilised E-cadherin-IgG
T2 construct: also called K562 transfectants that express αEβ7; L1.2 αEβ7 transfectants
T2 sequence (P38570 other isoform, or with tags, fused parts or gaps limits assumed, chain 1 of 2): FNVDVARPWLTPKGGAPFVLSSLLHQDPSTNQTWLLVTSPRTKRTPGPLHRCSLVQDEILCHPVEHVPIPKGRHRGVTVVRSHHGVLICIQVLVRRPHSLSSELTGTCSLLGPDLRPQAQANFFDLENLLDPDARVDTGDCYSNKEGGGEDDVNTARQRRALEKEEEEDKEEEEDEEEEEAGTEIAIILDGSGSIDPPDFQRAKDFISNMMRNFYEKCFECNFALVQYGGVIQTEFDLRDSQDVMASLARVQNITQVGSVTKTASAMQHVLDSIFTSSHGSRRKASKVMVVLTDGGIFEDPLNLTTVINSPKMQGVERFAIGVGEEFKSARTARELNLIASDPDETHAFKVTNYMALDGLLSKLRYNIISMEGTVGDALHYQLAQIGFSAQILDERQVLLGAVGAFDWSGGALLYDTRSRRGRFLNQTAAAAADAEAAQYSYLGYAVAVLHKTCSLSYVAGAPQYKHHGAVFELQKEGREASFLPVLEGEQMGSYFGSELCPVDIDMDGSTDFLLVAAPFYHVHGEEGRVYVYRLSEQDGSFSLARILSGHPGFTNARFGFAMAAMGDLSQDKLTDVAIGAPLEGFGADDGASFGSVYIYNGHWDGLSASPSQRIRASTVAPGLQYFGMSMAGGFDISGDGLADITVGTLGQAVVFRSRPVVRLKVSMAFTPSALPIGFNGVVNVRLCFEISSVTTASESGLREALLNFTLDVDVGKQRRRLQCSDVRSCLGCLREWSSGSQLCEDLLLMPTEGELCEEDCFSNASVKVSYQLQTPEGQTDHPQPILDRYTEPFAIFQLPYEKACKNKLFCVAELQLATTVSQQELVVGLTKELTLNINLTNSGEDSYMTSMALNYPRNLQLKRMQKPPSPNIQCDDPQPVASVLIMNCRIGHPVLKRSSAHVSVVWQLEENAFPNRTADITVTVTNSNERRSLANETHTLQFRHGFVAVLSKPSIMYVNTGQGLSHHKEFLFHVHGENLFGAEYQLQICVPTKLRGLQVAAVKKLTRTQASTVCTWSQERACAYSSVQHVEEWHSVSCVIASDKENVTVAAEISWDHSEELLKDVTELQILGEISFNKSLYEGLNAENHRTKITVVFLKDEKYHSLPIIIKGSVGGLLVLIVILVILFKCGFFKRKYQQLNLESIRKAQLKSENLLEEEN
T2 sequence (P26010 20-798 limits assumed, chain 2 of 2): as the sequence (P26010 20-798 limits assumed, chain 2 of 2) above
Experimental: ELISA plates were coated with 100 ng/well E-cadherin-IgG fusion protein in TBS (20 mM Tris, 140 mM NaCl, pH 9)/1 mM CaCl₂ overnight at 4° C. Plates were washed with wash buffer (HBSS/1 mM CaCl₂), and blocked with HBSS/1 mM CaCl₂/2% BSA for one hour at 37° C. After blocking, plates were washed twice with wash buffer. K562 transfectants at log growth stage were collected, washed once in HBSS/0.2% BSA/1 mM CaCl₂/1 mM MgCl₂, and resuspended to 4×10⁶ cells/mL in the same buffer. Cells were labeled with the fluorecent dye BCECF-AM (Molecular Probes, 4 μg/ml final concentration) for 15 minutes at […]. Labeled cells were washed twice, and resuspended in assay buffer (HBSS/0.2% BSA/1 mM CaCl₂/1 mM MgCl₂/1 mM MnCl₂) to 8×10⁵ cells/mL. 50 μl of the cell suspension was added to the E-cadherin-IgG coated well (4×10⁴ cells/well), and mixed with 50 μl assay buffer containing antibodies with desired concentration, or isotype-matched control antibody. The plate was then incubated at room temperature for 1 hour. The fluorescence content in each well was read on a Fluorescent Concentration Analyser (IDEXX, Westbrook, Me.) before and after three washes with HBSS/0.5 mM CaCl₂/0.5 mM MgCl₂/0.5 mM MnCl₂ using a Microplate Autowasher (Bio-Tek instruments, Winooski, Vt.). The Microplate Autowasher was programmed with parameters: 250 μl wash volume, 1× wash cycle, 0 soak time, and aspiration tube depth of 70. The bound cells (after washes) were expressed as a percentage of total input cells (before washes) in each well. Each sample was set up in triplicate wells.

[3] = target: mutant αEβ7 integrin, αE F298A, on transfected K562 cells (human, UniProt P38570 19-1179; P26010 20-798, F298A); experiment: flow cytometry on K562 cells expressing αEβ7 with αE F298A
Chain of mutant αEβ7 integrin, αE F298A, on transfected K562 cells (P38570 other isoform, or with tags, fused parts or gaps F298A | F298A F298A, chain 1 of 2): as the sequence (P38570 other isoform, or with tags, fused parts or gaps limits assumed, chain 1 of 2) above, with F298A counted along it
Chain of mutant αEβ7 integrin, αE F298A, on transfected K562 cells (P26010 20-798, chain 2 of 2): as the sequence (P26010 20-798 limits assumed, chain 2 of 2) above
Experimental: The fine specificity of mAb 5E4 was determined using a panel of transfected K562 cells that expressed various mutant αEβ7 integrins and detecting antibody binding to the transfectants by flow cytometry. The mutants proteins and methods used have been previously described in Higgins, J. M. G. et al., J. Biol. Chem. 275:25652-25664 (2000). The mutant αEβ7 integrins used contained the following mutations in the αE chain: R159S/R160S; ΔE163-E180; ΔE176; D190A; G193A; D199A; R202A/D205A; G230A/V231A; D240A; F298A; P311H/E345A/T346A; E325A; and Y354W. (See, Higgins, J. M. G. et al., J. Biol. Chem. 275:25652-25664 (2000).)
The fine specificity of mAb 5E4 was examined using transfected K562 cells that expressed αEβ7 integrin or mutated version of αEβ7 integrins, and antibody binding was detected by flow cytometry. Antibody binding was inhibited by deletion of amino acid residues 163-180 (ΔE163-E180; amino acid residues 163-180 of SEQ ID NO: 2), which are in the X domain of integrin αE chain, and was essentially abrogated by mutation of amino acid residue 298 (amino acid residue 298 of SEQ ID NO:2), which is in the I-domain, from Phenylalanine to Alanine (F298A).

B1: mAb 3G6 (IgG1) (antibody, V domains shown)
VH: EVQLVQSGAEVKKPGESLKISCKGSGYSFTSYWIGWVRQMPGKGLEWMGIIYPGDSGPRYSPSFQGQVTISADKSISTAYLQWSSLKASDTAMYYCARLSYTSTWYPYYFDYWGQGTLVTVSS
VL: not shown
notes: Human antibody; also called converted 3G6 (IgG1); antibody produced by CHO 3G6 C1.2D6
binding result [1]: no binding | IC50 [2]: ~2.04 µg/mL and ~13.4 nM

B4: mAb 8D5 (IgG1) (antibody, V domains shown)
VH: QVQLQESGPGLVKPSETLSLTCTVSGGSVSSYYWSWIRQPPGKGLEWIGHIYYSGNTNYNPSLKSRVTISVDTSKNQFSLKLSSVTAADTAVYFCARDRWNYYDSSPGYYYYYGMDVWGQGTTVTVSS
VL: DIQMTQSPSSLSASVGDRVTITCRASQGIRNDLGWYQQKPGKAPKRLIFAASHLQSGVPSRFSGSGSGTEFTLTISSLQPEDFATYYCQQHNSSPFTFGPGTRVDIK
notes: The variable domains are the same either way
IC50 [2]: ~0.715 µg/mL and ~4.7 nM

Results, then the binder that gave them:

binding result [1]: no binding | IC50 [2]: ~1.29 µg/mL and ~8.5 nM
B2: mAb 5E4 (IgG1) (antibody, V domains shown)
VH: EVQLVESGGGLVQPGGSLRLSCAASGFTFSNFWMSWVRQAPGKGLEWMANIKQDGSEKYYVDSVKGRFTISRDNAKSSLFLQMNSLRVDDTAVYFCAGDYYDSGSFYWGQGTLVTVSS
VL: EIVLTQSPATLSLSPGERATLSCRASQSVRSNLAWYQQKPGQAPRLLIYDASNRAIGIPARFSGSGSGTDFTLTISSLEPEDFVVYYCQQRSNWPPWTFGQGTKVEIK
notes: Human antibody; also called converted 5E4 (IgG1); antibody produced by CHO 5G4 A1.2C12

binding result [3]: no binding
B3: mAb 5E4 (antibody, V domains shown)
VH: B2 VH
VL: B2 VL
notes: The variable domains are the same as in m3 and m4

binding result [1]: no binding
B5: mAb 8D5 (antibody, V domains shown)
VH: B4 VH
VL: B4 VL
notes: also called 8D5 IgG2; human mAb 8D5 (IgG2)
